Data taken from patent US20190352423A1 (Genmab, published 2019).
Where a chain is given by its changes, count along the chain named. Numbers in names are those of the source.

B1: bsCD63xb12-Duo3 with CD63 variant T71H (bispecific antibody, part only; not given: b12 control arm, V domains shown, part only)
VH: EVQLQQSGPELVKPGASVKMSCKASGYTFTSYVMHWVRQTPGQGLEWIGYIHPYNDGTKYNEKFKGKATLTSDKSSSTAYMELSSLTSEDSAVYYCVGGDNYYYAMDYWGQGTSVTVSAA
VL: NIMVTQSPSSLAVSAGEKVTMSCKSSQSVLYSSNQKNYLAWYQQKPGQSPKLLIYWASTRVSGVPDRFTGSGSGTDFTLTISRVQAEDLAVYYCHQYFSSFTFGSGTKLEIKRT
B2: bsCD63xb12-Duo3 with CD63 variant Y121H (bispecific antibody, part only; not given: b12 control arm VH and VL, V domains shown, part only)
VH: B1 VH with H52T, Y102H
VL: B1 VL
B3: bsHER2xCD63-Duo3 with CD63 variant Y79H (bispecific antibody, part only; not given: HER2 arm (IgG1-153) VH and VL, V domains shown, part only)
VH: B1 VH with H52T, Y60H
VL: B1 VL
B4: bsHER2xCD63-Duo3 with CD63 variant P72H (bispecific antibody, part only; not given: HER2 arm (IgG1-153) VH and VL, V domains shown, part only)
VH: B1 VH with H52T, P53H
VL: B1 VL
B5: bsHER2xCD63-Duo3 with CD63 variant LV49H (bispecific antibody, part only; not given: HER2 arm (IgG1-153) VH and VL, V domains shown, part only)
VH: B1 VH with H52T
VL: B1 VL with V29H
B6: bsCD63xb12-Duo3 with CD63 variant LY51H (bispecific antibody, part only; not given: b12 control arm VH and VL, V domains shown, part only)
VH: B1 VH with H52T
VL: B1 VL with Y31H
B7: bsHER2xCD63-Duo3 with CD63 variant G76H (bispecific antibody, part only; not given: HER2 arm (IgG1-153) VH and VL, V domains shown, part only)
VH: B1 VH with H52T, G57H
VL: B1 VL
B8: bsCD63xb12-Duo3 with CD63 variant Y79H (bispecific antibody, part only; not given: b12 control arm, V domains shown, part only)
VH: B1 VH with H52T, Y60H
VL: B1 VL
B9: bsHER2xCD63-Duo3 with CD63 variant LS52 (bispecific antibody, part only; not given: HER2 arm (IgG1-153) VH and VL, V domains shown, part only)
VH: B1 VH with H52T
VL: B1 VL with S32H
B10: bsHER2xCD63-Duo3 with CD63 variant LN54H (bispecific antibody, part only; not given: HER2 arm (IgG1-153) VH and VL, V domains shown, part only)
VH: B1 VH with H52T
VL: B1 VL with N34H
B11: bsHER2xCD63-Duo3 with CD63 variant T71H (bispecific antibody, part only; not given: HER2 arm (IgG1-153) VH and VL, V domains shown, part only)
VH: B1 VH
VL: B1 VL
B12: bsCD63N74Hxb12-Duo3 (bispecific antibody, part only; not given: b12 control arm, V domains shown, part only)
VH: B1 VH with H52T, N55H
VL: B1 VL
B13: bsCD63xb12-Duo3 with CD63 variant G76H (bispecific antibody, part only; not given: b12 control arm VH and VL, V domains shown, part only)
VH: B1 VH with H52T, G57H
VL: B1 VL
B14: bsHER2xCD63-Duo3 (bispecific antibody, part only; not given: HER2 arm, IgG1, V domains shown, part only)
VH: B1 VH with H52T
VL: B1 VL
B15: bsCD63N74Hxb12 (bispecific antibody, part only; not given: b12 control arm, constant regions, V domains shown, not shown: another chain or arm of the molecule; a dimerising Fc or GST)
VH: EVQLQQSGPELVKPGASVKMSCKASGYTFTSYVMHWVRQTPGQGLEWIGYITPYHDGTKYNEKFKGKATLTSDKSSSTAYMELSSLTSEDSAVYYCVGGDNYYYAMDYWGQGTSVTVSA
VL: NIMVTQSPSSLAVSAGEKVTMSCKSSQSVLYSSNQKNYLAWYQQKPGQSPKLLIYWASTRVSGVPDRFTGSGSGTDFTLTISRVQAEDLAVYYCHQYFSSFTFGSGTKLEIK

Molecular target: CD63 on cells (human) (UniProt P08962)
Experiment: cell-based or functional assay

CD63 on cells (human), sequence (P08962 2-238): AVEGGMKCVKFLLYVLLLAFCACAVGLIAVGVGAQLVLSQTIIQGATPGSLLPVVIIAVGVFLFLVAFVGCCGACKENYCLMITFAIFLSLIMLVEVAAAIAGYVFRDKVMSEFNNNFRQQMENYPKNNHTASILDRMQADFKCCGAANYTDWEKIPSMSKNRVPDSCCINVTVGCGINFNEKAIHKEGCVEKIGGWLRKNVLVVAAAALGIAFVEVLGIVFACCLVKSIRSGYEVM

| lysosomal co-localization with LAMP1 in SK-OV-3 cells (confocal microscopy, 16 hours) [fold lower] | Binder | IC50 of cytotoxicity, Colo205 cells (CellTiter-GLO, 4 days) [µg/mL] | IC50 of cytotoxicity, HCC1954 cells (CellTiter-GLO, 4 days) [µg/mL] | IC50 of cytotoxicity, SK-OV-3 cells (CellTiter-GLO, 4 days) [µg/mL] |
| --- | --- | --- | --- | --- |
|  | B1 | 10 | 4.89 | 3.8 |
| 10 | B2 | 10 | 10 | 5.46 |
|  | B3 | 0.432 | 0.008 | 0.021 |
|  | B4 | 1.4 | 0.014 | 0.028 |
|  | B5 | 10 | 0.065 | 0.314 |
|  | B6 | 10 | 5.27 | 4.52 |
|  | B7 | 10 | 0.104 | 0.351 |
|  | B8 | 3.41 | 0.42 | 0.93 |
|  | B9 | 0.567 | 0.018 | 0.047 |
|  | B10 | 1.69 | 0.013 | 0.021 |
|  | B11 | 2.23 | 0.03 | 0.115 |
|  | B12 | 3.93 | 1.35 | 1.99 |
|  | B13 | 1.42 | 10 | 3.06 |
|  | B14 | 0.416 | 0.009 | 0.017 |
| 10 | B15 |  |  |  |
